Target: T1, human IL-1β (human, UniProt P01584 117-269)
T1 construct: antigen of the ABT2 dAbs; also called hIL-1β; IL-1 beta
Assay: IC50 column of Table 63; receptor binding assay presumed

Binder | IC50 [nM]
ABT2-65-38 (other, VH dAb) VH: EVQLLESGGGLVQPGGSLRLSCAASGFTFEDYQMGWVRQAPGKGLEWVSSISAMGNRTYYADSVKGRFTIYRDDSKNTLYLQMNSLRAEDTAVYYCAQNLVRTQSKMWMFDYWGQGTLVTVSS | 30
ABT2-65-124 (other, VH dAb) VH: EVQLLESGGGLVQPGGSLRLSCVASGFTFEDYQMGWVRQAPGKGLEWVSSISAVGNRTYYADSVKGRFTISRDDSKNTLYLQMNSLRAEDIAVYYCAQNLVRLGRSRWMFDYWGQGTLVTVSS | 3.8
ABT2-65-137 (other, VH dAb) VH: EVQLLESGGGLVQPGGSLRLSCAASGFTFEDYQMGWVRQAPGKGLEWVSSISAMGNRTYYADSVKGRFTISRDDSKNTLYLQMNSLRAEDTAVYYCAENLVRTAKRRWMFDYWGQGTLVTVSS | 5
ABT2-65-118 (other, VH dAb) VH: EVQLLESGGGLVQPGGSLRLSCAASGFTFATYTMGWVRQAPGKGLEWVSSISAMGNRTYYADSVKGRFTISRDDSKNTLYLQMNSLRAEDTAVYYCAQNLVRLGRSRWMFDYWGQGTLVTVSS | 4.6
ABT2-65-117 (other, VH dAb) VH: EVQLLESGGGLVRPGGSLRLSCVASGFTFEDYQMGWVRQAPGKGLEWISSISAMGNRTYYADSVKGRFTISRDDSKNTLYLQMNSLRAEDTAVYYCAQNLVRLGRSRWMFDYWGQGTLVTVSS | 10
ABT2-65-87 (other, VH dAb) VH: EVQLLESGGGLVQPGGSLRLSCVASGFTFEDYQMGWVRQAPGKDLEWVSSISAMGNRTYYADSVKGRFTISRDDSKNTLYLQMNSLRAEDTAVYYCAQNLVRLGRSRWMFDYWGQGTLVTVSS | 50
ABT2-65-75 (other, VH dAb) VH: EVQLLESGGGLVQHGGSLRLSCVASGFTFEDYQMGWVRQAPGKGLEWVSSISAMGNRTYYADSVKGRFTISRDDSKNTLYLQMNSLRAEDTAVYYCAQNLVRLGKSRWMFDYWGQGTLVTVSS | 30
ABT2-65-144 (other, VH dAb) VH: EVQLLESGGGLVQPGGSLRLSCAASGFTFEDYQMGWVRQAPGKGLEWVSSISAMGNRTYYADSVKGRFTISRDDSKNTLYLQMNSLRAEDTAVYYCAENLVRISKKQWMFDYWGQGTLVTVSS | 6
ABT2-65-114 (other, VH dAb) VH: EVQLLESGGGLVQPGGSLRLSCAASGFTFREYMMGWVRQAPGKGLEWVSSISAMGNRTYYADSVKGRFTISRDDSKNTLYLQMNSLRAEDTAVYYCAQNLVRLGRSRWMFDYWGQGTLVTVSS | 4
ABT2-65-126 (other, VH dAb) VH: EVQLLESGGGLVQPGGSLRISCVTSGFTFEDYQMGWVRQAPGKGLEWVSSISAMGNRTYYADSVKGRFTISRDDSKNTLNLQMNSLRAEDTAVYYCAQNLVRLGRSRWVFDYWGQGTLVTVSS | 4.3
ABT2-65-119 (other, VH dAb) VH: EVQLLESGGGLVQPGGSLRLSCAASGFTFIAYPMGWVRQAPGKGLEWVSSISAMGNRTYYADSVKGRFTISRDDSKNTLYLQMNSLRAEDTAVYYCAQNLVRLGRSRWMFDYWGQGTLVTVSS | 4
ABT2-65-138 (other, VH dAb) VH: EVQLLESGGGLVQPGGSLRLSCAASGFTFEDYQMGWVRQAPGKGLEWVSSISAMGNRTYYADSVKGRFTISRDDSKNTLYLQMNSLRAEDTAVYYCAENLVRVTARKWMFDYWGQGTLVTVSS | 5
ABT2-65-131 (other, VH dAb) VH: EVQLLESGGGLVQPRGSLRLSCVASGFTFEDYQMGWVRQAPGKGLEWVSSISTMGNRTYYADSVKGRFTISRDDSKNTLYLQMNSLRAEDTAVYHCAQNLVRLGRSRWMFDYWGQGTLVTVSS | 13.2
ABT2-65-46 (other, VH dAb) VH: EVQLLESGGGLVQPGGSLRLSCAASGFTFEDYQMGWVRQAPGKGLEWVSSISAMGNRTYYADSVKGRFTISRDDSKNTLYLQMNSLRAEDTAVYYCAKWLTRTQSKLGYFDYWGQGTLVTVSS | 30
ABT2-65-83 (other, VH dAb) VH: EVQLLESGGGLVQPGGSLRLSCVASGFTFEDYQMGWVRQAPGKGLEWVSSISAMGNRTYYADSVKGRFTISRDDSKNTLYLQMNSQRAEDTAVYYCAQNLVRLGRSRWMFDYWGQGTLVTVSS | 300
ABT2-65-120 (other, VH dAb) VH: EVQLLESGGGLVQPGGSLRLSCVASGFTFEDYQMGWVRQAPGKGLEWVSSISAMGMRTYYADSVKGRFTISRDDSKNTLYLQMNSLRAEDTAVYYCAQNLVRLGRSRWMFDYWGQGTLVTVSS | 4.2
ABT2-65-132 (other, VH dAb) VH: EVQLLESGGGLVQPGGSLRLSCAASGFTFEDYQMGWVRQAPGKGLEWVSSISAMGNRTYYADSVKGRFTISRDDSKNTLYLQMNSLRAEDTAVYYCAENLVRLASRRWMFDYWGQGTLVTVSS | 5

Binder | IC50 [nM]
ABT2-65-121 (other, VH dAb) VH: EVQLLESGGGLVQPGGSLRLSCVASGFTFEDYQMGWVRQAPGKGLEWVSSIAAHGNRTYYADSVKGRFTISRDDSKNTLYLQMNSLRAEDTAVYYCAQNLVRLGRSRWMFDYWGQGTLVTVSS | 3.9
ABT2-65-130 (other, VH dAb) VH: EVQLLESGGGLVQPGGSLRLSCVASGFTFEDYQMGWVRQAPGKGLEWVSSISAMVNRTYYADSVKGRFTISRDDSKNTLYLQMNSLRAEDTAVYYCAQNLVRLGRSRWMFDYWGQGTLVTVSS | 4.3
ABT2-65-78 (other, VH dAb) VH: EVQLLESGGGLVQPGGSLRLSCVASGFTFEDYQMGWVRQAPGKGLEWVSSISAMGNRTYYADSVKGRFTISRDDSKNTLYLQMNSLRAEDTAVYYCAQNLVRLGTSRWMFDYWGQGALVTVSS | 30
ABT2-65-143 (other, VH dAb) VH: EVQLLESGGGLVQPGGSLRLSCAASGFTFEDYQMGWVRQAPGKGLEWVSSISAMGNRTYYADSVKGRFTISRDDSKNTLYLQMNSLRAEDTAVYYCAENLVRLQRDRWMFDYWGQGTLVTVSS | 5
ABT2-65-127 (other, VH dAb) VH: EVQLLESGGGLVQPGGSLRLSCVASGFTFEDYQMGWVRQAPGKGLEWVTSISAMGNRTYYADSVKGRFTISRDDSKNTLYLQMNSLRAEDTAVYYCAQNLVRLGRSRWMFDYWGQGTLVTVSS | 5.5
ABT2-65-129 (other, VH dAb) VH: EVQLLESGGGLVQPGGSLRLSCVASGFTFEDYQMGWVRQAPGKGLEWVSTVSAMGNRTYYADSMKGRFTISRDDSKNTLYLQMNSLRAEDTAVYYCAQNLVRLGRSRWMFDYWGQGTLVTVSS | 3.4
ABT2-65-90 (other, VH dAb) VH: EVQLLESGGGLVQPGGSLRLSCVASGFTFEDYQMGWVRQAPGKGQEWVSSISAMGNRTYYADSVKGRFTISRDDSKNTLYLQMNSLRAEDTAVYYCAQNLVRLGRSRWMFDYWGHGTLVTVSS | 300
ABT2-65-39 (other, VH dAb) VH: EVQLLESGGGLVQPGGSLRLSCAASGFTFEDYQMGWVRQAPGKGLEWVSSISAMGNRTYYADSVKGRFTISRDDSKNTLYLQMNSLRAEDTAVYYCAGNLVRTQSKMWMFDYWGQGTLVTVSS | 300
ABT2-65-49 (other, VH dAb) VH: GVQLLESGGGLVQPGGSLRLSCAASGFTFEDYQMGWVRQAPGKGLEWVSSISAMGNRTYYADSVKGRFTISRDDSKNTLYLQMNSLRAEDTAVYYCAQNLVRTQSKMWMFDYWGQGTLVTVSS | 20
ABT2-65-125 (other, VH dAb) VH: EVQLLESGGGLVQPGGSLRLSCVASGFTFEDYQMGWVRQAPGKGLEWISSISAMGNRTYYADSVKGRFTISRDDSKNTLYLQMNSLRAEDTAVYYCAQNLVRLGRSRWMFDYWGQGTLVTVSS | 4
ABT2-65-141 (other, VH dAb) VH: EVQLLESGGGLVQPGGSLRLSCAASGFTFEDYQMGWVRQAPGKGLEWVSSISAMGNRTYYADSVKGRFTISRDDSKNTLYLQMNSLRAEDTAVYYCAENLVRIKQTKWMFDYWGQGTLVTVSS | 5
ABT2-65-115 (other, VH dAb) VH: EVQLLESGGGLVQPGGSLRLSCAASGFTFIDYQMGWVRQAPGKGLEWVSSISAMGNRTYYADSVKGRFTISRDDSKNTLYLQMNSLRAEDTAVYYCAQNLVRLGRSRWMFDYWGQGTLVTVSS | 4
ABT2-65-76 (other, VH dAb) VH: EVQLLESGGGLVQPGGSLRLSCVASGFTFEDYQMGWVRQAPGKGLEWVTSISAMGNRTYYADSVKGRFTISRDDSKNTLYLQMNSLRAEDTAVYYCAQNLVRLGRSRWMFDYWGQGTLVTVSS | 8
ABT2-65-139 (other, VH dAb) VH: EVQLLESGGGLVQPGGSLRLSCAASGFTFEDYQMGWVRQAPGKGLEWVSSISAMGNRTYYADSVKGRFTISRDDSKNTLYLQMNSLRAEDTAVYYCAQNLVRVRVRRWMFDYWGQGTLVTVSS | 4
ABT2-65-135 (other, VH dAb) VH: EVQLLESGGGLVQPGGSLRLSCAASGFTFEDYQMGWVRQAPGKGLEWVSSISAMGNRTYYADSVKGRFTISRDDSKNTLYLQMNSLRAEDTAVYYCAENLVRIKKMKWMFDYWGQGTLVTVSS | 5
ABT2-65-84 (other, VH dAb) VH: EVQLLESGGGLVQPGGSLRLSCVASGFSFEDYQMGWVRQAPRKGLEWISSISAMGNRTYYADSVKGRFTISRDDSKNTLYLQMNSLRAEDTAVYYCAQNLVRLGRSRWMFDYWGQGTLVTVSS | 60
ABT2-65-133 (other, VH dAb) VH: EVQLLESGGGLVQPGGSLRLSCAASGFTFEDYQMGWVRQAPGKGLEWVSSISAMGNRTYYADSVKGRFTISRDDSKNTLYLQMNSLRAEDTAVYYCAENLVHWKRGGWMFDYWGQGTLVTVSS | 30
